Measured values as given in PMC10397247.
Like-named read-outs stand apart in the source and are kept apart here.

Key:
Assay in all cases: two-hybrid library CCmax;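 note: natural log of median RNA to DNA barcode read ratio; higher means stronger binding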
4H3066-AA = target: T1, 4H3066-AA; details: mean of both orientations
T1 chain: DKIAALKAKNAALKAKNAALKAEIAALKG

4H3446-AA = target: T2, 4H3446-AA; details: mean of both orientations
T2 chain: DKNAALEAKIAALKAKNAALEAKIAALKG

4H3939-AA = target: T3, 4H3939-AA; details: mean of both orientations
T3 chain: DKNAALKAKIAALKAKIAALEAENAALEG

4H3628-AA = target: T4, 4H3628-AA; details: mean of both orientations
T4 chain: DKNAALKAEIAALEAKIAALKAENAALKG

4H971-AA = target: T5, 4H971-AA
T5 chain: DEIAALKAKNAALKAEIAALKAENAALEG

4H3666-AA = target: T6, 4H3666-AA; details: mean of both orientations
T6 chain: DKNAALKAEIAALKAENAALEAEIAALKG

4H3709-AA = target: T7, 4H3709-AA; details: mean of both orientations
T7 chain: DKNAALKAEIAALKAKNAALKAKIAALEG

4H2742-AA = target: T8, 4H2742-AA; details: mean of both orientations
T8 chain: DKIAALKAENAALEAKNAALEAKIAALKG

4H189-AA = target: T9, 4H189-AA; details: mean of both orientations
T9 chain: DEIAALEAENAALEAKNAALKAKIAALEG

4H2948-AA = target: T10, 4H2948-AA; details: mean of both orientations
T10 chain: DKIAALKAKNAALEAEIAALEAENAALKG

4H1854-AA = target: T11, 4H1854-AA; details: mean of both orientations
T11 chain: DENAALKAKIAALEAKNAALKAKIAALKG

4H2248-AA = target: T12, 4H2248-AA; details: mean of both orientations
T12 chain: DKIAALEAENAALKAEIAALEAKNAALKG

4H2713-AA = target: T13, 4H2713-AA; details: mean of both orientations
T13 chain: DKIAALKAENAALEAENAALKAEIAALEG

4H3417-AA = target: T14, 4H3417-AA; details: mean of both orientations
T14 chain: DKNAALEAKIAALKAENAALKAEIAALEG

4H3102-AA = target: T15, 4H3102-AA; details: mean of both orientations
T15 chain: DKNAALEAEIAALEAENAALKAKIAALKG

4H478-AA = target: T16, 4H478-AA; details: mean of both orientations
T16 chain: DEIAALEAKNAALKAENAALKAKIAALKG

4H3121-AA = target: T17, 4H3121-AA; details: mean of both orientations
T17 chain: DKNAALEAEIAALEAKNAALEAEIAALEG

4H656-AA = target: T18, 4H656-AA; details: mean of both orientations
T18 chain: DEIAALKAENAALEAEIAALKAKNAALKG

4H1809-AA = target: T19, 4H1809-AA
T19 chain: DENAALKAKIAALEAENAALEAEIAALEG

4H675-AA = target: T20, 4H675-AA; details: mean of both orientations
T20 chain: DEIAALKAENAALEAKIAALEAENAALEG

4H497-AA = target: T21, 4H497-AA; details: mean of both orientations
T21 chain: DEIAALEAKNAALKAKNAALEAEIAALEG

4H2991-AA = target: T22, 4H2991-AA; details: mean of both orientations
T22 chain: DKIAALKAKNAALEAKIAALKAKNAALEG

4H3920-AA = target: T23, 4H3920-AA; details: mean of both orientations
T23 chain: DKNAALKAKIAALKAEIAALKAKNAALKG

4H2283-AA = target: T24, 4H2283-AA; details: mean of both orientations
T24 chain: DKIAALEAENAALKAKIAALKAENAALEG

4H3591-AA = target: T25, 4H3591-AA; details: mean of both orientations
T25 chain: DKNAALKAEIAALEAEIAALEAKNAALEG

4H391-AA = target: T26, 4H391-AA; details: mean of both orientations
T26 chain: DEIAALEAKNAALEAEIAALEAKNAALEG

4H3029-AA = target: T27, 4H3029-AA; details: mean of both orientations
T27 chain: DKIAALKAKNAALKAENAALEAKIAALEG

4H428-AA = target: T28, 4H428-AA; details: mean of both orientations
T28 chain: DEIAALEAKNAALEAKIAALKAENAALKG

Binder | interaction score (4H3066-AA) | interaction score (4H3446-AA) | interaction score (4H3939-AA) | interaction score (4H3628-AA) | interaction score (4H3666-AA) | interaction score (4H3709-AA) | interaction score (4H2742-AA) | interaction score (4H189-AA) | interaction score (4H2948-AA) | interaction score (4H1854-AA) | interaction score (4H2248-AA) | interaction score (4H2713-AA) | interaction score (4H3417-AA) | interaction score (4H3102-AA) | interaction score (4H478-AA) | interaction score (4H3121-AA) | interaction score (4H656-AA) | interaction score (4H675-AA) | interaction score (4H497-AA) | interaction score (4H2991-AA) | further results
DEIAALEAENAALEAENAALEAEIAALKG [4H146-AA] | 1.92 | -0.572 | -1.52 | -1.8 | -0.984 | -0.0632 | 0.586 | -0.199 | -1.48 | 1.2 | -1.75 | 0.457 | -0.477 | -1.45 | 1.98 | -1.69 | -1.76 | -2.03 | 0.786 | -0.675 | interaction score (4H971-AA): 0.134; interaction score (4H1809-AA; mean of both orientations): -1.69; interaction score (4H3920-AA): 0.785; interaction score (4H2283-AA): -1.02; interaction score (4H3591-AA): -1.28; interaction score (4H391-AA): -1.68; interaction score (4H3029-AA): 2.06; interaction score (4H428-AA): -1.8
DENAALKAKIAALEAENAALEAEIAALEG [4H1809-AA] | 0.194 | 1.42 | -1.45 | -1.29 | -1.2 | 1.51 | -1.29 | -0.354 | -1.16 | 2.32 | -0.294 | -1.63 | -0.579 | 2.27 | 0.898 | -1.18 | -1.1 | -1.74 | -1.51 | -0.235 | interaction score (4H971-AA; mean of both orientations): 0.362; interaction score (4H1809-AA): -0.349; interaction score (4H3920-AA): -0.86; interaction score (4H2283-AA): 1.16; interaction score (4H3591-AA): -1.94; interaction score (4H391-AA): -1.47; interaction score (4H3029-AA): -2.28; interaction score (4H428-AA): -0.837
